Experimental findings from patent CN115433274A (BEIJING KENUO XINCHENG TECH CO LTD, dated 2022) are described below.

To fix the notation:
B2: 食蟹猴SA重组蛋白 (other)
chain: DTHKSEVAHRFKDLGEEHFKGLVLVAFSQYLQQCPFEEHVKLVNEVTEFAKTCVADESAENCDKSLHTLFGDKLCTVATLRETYGEMADCCAKQEPERNECFLQHKDDNPNLPPLVRPEVDVMCTAFHDNEATFLKKYLYEVARRHPYFYAPELLFFAARYKAAFAECCQAADKAACLLPKLDELRDEGKASSAKQRLKCASLQKFGDRAFKAWAVARLSQKFPKAEFAEVSKLVTDLTKVHTECCHGDLLECADDRADLAKYMCENQDSISSKLKECCDKPLLEKSHCLAEVENDEMPADLPSLAADYVESKDVCKNYAEAKDVFLGMFLYEYARRHPDYSVMLLLRLAKAYEATLEKCCAAADPHECYAKVFDEFQPLVEEPQNLVKQNCELFEQLGEYKFQNALLVRYTKKVPQVSTPTLVEVSRNLGKVGAKCCKLPEAKRMPCAEDYLSVVLNRLCVLHEKTPVSEKVTKCCTESLVNRRPCFSALELDEAYVPKAFNAETFTFHADMCTLSEKEKQVKKQTALVELVKHKPKATKEQLKGVMDNFAAFVEKCCKADDKEACFAEEGPKFVAASQAALA
notes: Bought product; also called cyno SA; Cynomolgus serum albumin

In experiment [1] the target is B2. As to the kind of experiment: phage ELISA, phage supernatant on cyno SA-coated plate. (In general: ELISA stands for enzyme-linked immunosorbent assay.)
Experiment [2] has as its target T1, 牛血清白蛋白(BSA) (bovine, UniProt P02769 25-607).
T1 construct: also called Bovine serum albumin
Kind of experiment: phage ELISA, phage supernatant on BSA-coated plate.

In experiment [3] the target is T2, 对照抗体ALB8 (ALB8重组蛋白, VHH-hFc) (human).
T2 construct: Control anti-HSA nanobody expressed as fusion with human Fc; also called 对照纳米抗体ALB8
Kind of experiment: ELISA, albumin coated at 1 μg/mL, HRP-anti-human Fc.

T2 sequence (chain, as listed by the source limits assumed): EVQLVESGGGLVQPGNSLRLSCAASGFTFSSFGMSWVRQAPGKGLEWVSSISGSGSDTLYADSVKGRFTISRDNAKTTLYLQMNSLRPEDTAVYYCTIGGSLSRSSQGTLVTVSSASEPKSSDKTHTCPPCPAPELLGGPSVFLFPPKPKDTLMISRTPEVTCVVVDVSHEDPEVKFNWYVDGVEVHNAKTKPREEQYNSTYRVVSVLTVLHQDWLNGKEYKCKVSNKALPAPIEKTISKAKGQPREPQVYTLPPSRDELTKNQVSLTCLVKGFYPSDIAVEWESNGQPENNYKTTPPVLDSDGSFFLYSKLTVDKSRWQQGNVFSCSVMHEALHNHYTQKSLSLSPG

B1: 噬菌体展示的纳米抗体2MG6 (VHH)
VHH: QVQLQESGGGLVQAGGSLRLSCAASGSTYPTAYIAWFRQAPGKEREGVAGIYTVGGSTFYTDSVKGRFTISRDNAKNTVYLLMNSLKPEDTAMYFCAAGRTDTAKLRDPRSFGYWGQGTQVTVSS
notes: the phage fusion part is not described; also called 克隆2MG6
With B1, the binding result in experiment [1] is on record as “binds”; in experiment [2], “no binding”.

As to B2, the binding result in experiment [3] was “binds”.
